Consider one molecule from patent US20210047431A1 (DIACCURATE, published 2021).

The target of assay [1] is T1, recombinant human sPLA2-GIB (mature secreted form of group IB pancreatic phospholipase A2) (human, UniProt P04054 23-148). Description: cell-based or functional assay.
Assay [2] concerns the target T1, recombinant human sPLA2-GIB (mature …). Description: indirect ELISA, coated antigen. The protocol:
(§1) Microplate wells were typically coated with 100 ng of recombinant human sPLA2-GIB or pro-sPLA2-GIB in PBS pH 7.5, overnight at 4° C. Sample wells were washed three times with PBS containing 0.05% Tween 20. After final washing, sample wells were treated with blocking solution containing 1% bovine serum albumin (BSA) in PBS buffer for 60 min at room temperature. Following washing with PBS containing 0.05% Tween 20, increasing amounts (10 ng/mL up to 3 μg/mL) of mAb directed against human pro-sPLA2-GIB or sPLA2-GIB were added to antigen-coated wells. and incubated for 120 min at room temperature. Following washing with PBS containing 0.05% Tween 20, the binding of mAb was detected with an HRP-conjugated goat anti-mouse IgG or IgA polyclonal antibody reagent and developed using colorimetric substrate. The dependency of the signals on the […] was analyzed with a 4-parameter fit analysis using Prism™ software (Graph Pad) and reported as EC50.

For assay [3] the target is unchanged. Description: cell-based or functional assay. The source holds these as a separate data set.
The target is the same in assay [4]. As to the kind of experiment: competition ELISA on coated sPLA2-IB; competitor biotinylated 1C11. As for the experimental part:
(§2) Epitope mapping of the #14G9, #1C11, #8G11 and #7A10 mAbs was evaluated by competition ELISA. Biotinylated mAbs #14G9, #1C11, #8G11 or #7A10 were added to sPLA2-GIB or pro-sPLA2-GIB coated plates in the presence of an excess of un-biotinylated mAb. Bound mAbs were then detected with Streptavidin-HRP conjugate. Results were expressed as percentage of signal, after subtraction of the autologous competition, with 0% representing maximum competition and 100% no competition (Table 4).
(In general: An ELISA detects its analyte on a solid surface through an enzyme-linked reagent.)

Assay [5] shares this target. As to the kind of experiment: competition ELISA on coated sPLA2-IB; competitor biotinylated 7A10. As for the experimental part: as §2
In assay [6] the target is T2, recombinant human pro-sPLA2-GIB (pro form of group IB pancreatic phospholipase A2) (human, UniProt P04054 16-148).
T2 construct: also called pro-sPLA2-IB; proPLA2-GIB
T2 sequence (P04054 16-148): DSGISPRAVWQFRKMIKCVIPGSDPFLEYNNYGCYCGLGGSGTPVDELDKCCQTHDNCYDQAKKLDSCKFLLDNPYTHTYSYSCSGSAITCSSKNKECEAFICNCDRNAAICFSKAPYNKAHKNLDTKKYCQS
Description: competition ELISA on coated pro-sPLA2-IB; competitor biotinylated 1C11. The protocol:
as §2

Assay [7] concerns the target T2, recombinant human pro-sPLA2-GIB (pro …). Description: competition ELISA on coated pro-sPLA2-IB; competitor biotinylated 7A10. The protocol: as §2
For assay [8] the target is unchanged. As to the kind of experiment: competition ELISA on coated pro-sPLA2-IB; competitor biotinylated 8G11. The protocol: as §2
The target in assay [9] is T1, recombinant human sPLA2-GIB (mature …). Description: SPR (BIAcore 2000), mAb captured on anti-mouse IgG, antigen in solution. The protocol: (§3) The affinity constant (KD) of the pro-sPLA2-GIB and sPLA2-GIB binding to the selected antibodies described above were determined by surface kinetics on a real-time biosensor surface plasmon resonance assay (BIAcore™). More specifically, the affinity of the antibodies for human pro-sPLA2-GIB and sPLA2-GIB was measured using a BIAcore® 2000. The antibody was captured on an anti-mouse IgG surface and exposed to various concentrations of recombinant pro-sPLA2-GIB and sPLA2-GIB protein. Kinetic analysis using BlAevaluation™ software was performed to obtain the association and dissociation rate constants.
as §3, with “constants (Table 3).” for “constants.”
For orientation: SPR reads the build-up and loss of mass on a sensor chip optically.

The target in assay [10] is T2, recombinant human pro-sPLA2-GIB (pro …). Description: indirect ELISA, coated antigen; indirect ELISA, pro-sPLA2-IB coated on the plate. The protocol:
as §1

The target of assay [11] is T1, recombinant human sPLA2-GIB (mature …). Description: competitive ELISA: mAb premixed with serial dilutions of soluble antigen, free mAb read on antigen-coated plate. The protocol: (§4) Binding affinities of the antibodies to pro-sPLA2-GIB and sPLA2-GIB were measured by plate-based competition immunoassay. For the competition ELISA, briefly, constant amounts of antibody at different levels were premixed with serial dilutions of antigen protein, human sPLA2-GIB or pro-sPLA2-GIB, ranging from 0 to 10 μg/ml, and incubated for two hours at room temperature to reach pseudo-binding equilibrium between the antibody and antigen. These solutions were then transferred to 96-well sPLA2-GIB or pro-sPLA2-GIB pre-coated plates to allow the free-antibody in the mixtures to bind to plate-coated sPLA2-GIB or pro-sPLA2-GIB. The plates were typically coated with 30 to 100 ng of human sPLA2-GIB or pro-sPLA2-GIB protein in PBS solution overnight at 4° C. followed by BSA nonspecific blocking. After washing off excess antibody in solution, plate-bound antibodies were detected with an HRP-conjugated goat anti-mouse IgG or IgA polyclonal antibody reagent and developed using colorimetric substrate. The dependency of the signals on the concentrations of antigen in solution was analyzed with a 4-parameter fit analysis using Prism™ software (Graph Pad) and reported as IC50.
The respective binding affinities of the antibodies to human pro-sPLA2-GIB and human sPLA2-GIB were measured by plate-based competition immunoassay. Briefly, constant amounts of antibody at different levels were premixed with serial dilutions of antigen proteins to reach pseudo-binding equilibrium between the antibody and antigen. These solutions were then transferred to antigen pre-coated plates to allow the free-antibody in the mixtures to bind to plate-coated sPLA2-GIB or pro-sPLA2-GIB. Plate-bound antibodies were detected with an HRP-conjugated polyclonal antibody. Data were fitted with a 4PL logistic non-linear regression model and the relative IC50 values were estimated from the model (Table 2).

The target in assay [12] is T2, recombinant human pro-sPLA2-GIB (pro …). As to the kind of experiment: SPR (BIAcore 2000), mAb captured on anti-mouse IgG, antigen in solution; SPR, mAb captured, pro-sPLA2-GIB in solution. The protocol: as §3
as §3, with “constants (Table 3).” for “constants.”

Assay [13] has the same target. As to the kind of experiment: competitive ELISA: mAb premixed with serial dilutions of soluble antigen, free mAb read on antigen-coated plate; competitive ELISA, soluble pro-sPLA2-IB. The protocol:
as §4, with “The plates were typically coated with 30 to 100 ng of human sPLA2-GIB or pro-sPLA2-GIB protein in PBS solution overnight at 4° C. followed by BSA nonspecific blocking.” left out
The respective binding affinities of the antibodies to human pro-sPLA2-GIB and human sPLA2-GIB were measured by plate-based competition immunoassay. […] Plate-bound antibodies were detected with an HRP-conjugated polyclonal antibody. […]

T1 sequence (P04054 23-148): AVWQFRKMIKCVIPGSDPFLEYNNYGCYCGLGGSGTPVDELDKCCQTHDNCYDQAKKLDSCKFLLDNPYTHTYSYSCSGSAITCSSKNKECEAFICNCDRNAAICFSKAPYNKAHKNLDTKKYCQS

B1: #14G9 (antibody, IgG1, V domains shown)
VH: QVQLQQPGAELVKPGASVKLSCKASGYTFTNYWIHWVKRRPGQGLEWIGNIDPSDTRTHYNQKFKDKATLAVDKSSSTAYMQLSSLTSEDSAVFYCARQTLYYEALDYWGQGTTLTVSS
VL: DIVMTQSHKLMSTSVGDRVSITCKASQDVSTAVAWYQEKPGQSPKLLIYWASTRHTGVPNRFTGSRSGTDYTLTISSVQAEDLALYYCQQDYSTPPTFGAGTKLELKR
notes: also called monoclonal antibody 14G9; #14G9 mAb
As to B1, the “Enzymatic Activity Inhibition (% of Control)” value in assay [1] came to 5%. The half-maximal effective concentration (EC50) in assay [2] was 6 nM; in [10], 158 nM. Moreover, the “IC50 of inhibition of sPLA2-GIB enzymatic activity (sPLA2 Activity in U/mL against #14G9 mAb in Log M, 4PL fit)” value in [3] was found to be 2.3 nM. The percentage of signal in assay [4] stood at 64%; in [5] it was 12%; in assay [6] it was 69%; in [7] it was 141%; in assay [8], 73%. Further, the Kd in assay [9] was 0.338 nM; in [12], 174 nM. Besides, the koff was found to be 0.000549 s⁻¹ in assay [9] and 0.0506 s⁻¹ in assay [12]. Also, the values for the kon in assay [9] and in assay [12] were 1.63e+06 M⁻¹ s⁻¹ and 301000 M⁻¹ s⁻¹, respectively. In addition, the t1/2 in [9] came to 30.4 min; in assay [12], 0.3 min. For the same molecule, the IC50 in assay [11] stood at 1 nM; in assay [13] it was 109 nM.

As usually defined, the EC50 is the midpoint of the concentration-response curve. The term Kd denotes the equilibrium constant for the complex coming apart. A word on the koff: it is the first-order rate constant of dissociation. Usually kon stands for a measure of how fast the partners come together. For orientation: IC50 means the concentration needed to halve the response being measured.
